To fix the notation:
B1: BBSome complex member BBS1 (Homo sapiens), Q8NFJ9 (parent)
chain: MAAASSSDSDACGAESNEANSKWLDAHYDPMANIHTFSACLALADLHGDGEYKLVVGDLGPGGQQPRLKVLKGPLVMTESPLPALPAAAATFLMEQHEPRTPALALASGPCVYVYKNLRPYFKFSLPQLPPNPLEQDLWNQAKEDRIDPLTLKEMLESIRETAEEPLSIQSLRFLQLELSEMEAFVNQHKSNSIKRQTVITTMTTLKKNLADEDAVSCLVLGTENKELLVLDPEAFTILAKMSLPSVPVFLEVSGQFDVEFRLAAACRNGNIYILRRDSKHPKYCIELSAQPVGLIRVHKVLVVGSTQDSLHGFTHKGKKLWTVQMPAAILTMNLLEQHSRGLQAVMAGLANGEVRIYRDKALLNVIHTPDAVTSLCFGRYGREDNTLIMTTRGGGLIIKILKRTAVFVEGGSEVGPPPAQAMKLNVPRKTRLYVDQTLREREAGTAMHRAFQTDLYLLRLRAARAYLQALESSLSPLSTTAREPLKLHAVVQGLGPTFKLTLHLQNTSTTRPVLGLLVCFLYNEALYSLPRAFFKVPLLVPGLNYPLETFVESLSNKGISDIIKVLVLREGQSAPLLSAHVNMPGSEGLAAA
partner: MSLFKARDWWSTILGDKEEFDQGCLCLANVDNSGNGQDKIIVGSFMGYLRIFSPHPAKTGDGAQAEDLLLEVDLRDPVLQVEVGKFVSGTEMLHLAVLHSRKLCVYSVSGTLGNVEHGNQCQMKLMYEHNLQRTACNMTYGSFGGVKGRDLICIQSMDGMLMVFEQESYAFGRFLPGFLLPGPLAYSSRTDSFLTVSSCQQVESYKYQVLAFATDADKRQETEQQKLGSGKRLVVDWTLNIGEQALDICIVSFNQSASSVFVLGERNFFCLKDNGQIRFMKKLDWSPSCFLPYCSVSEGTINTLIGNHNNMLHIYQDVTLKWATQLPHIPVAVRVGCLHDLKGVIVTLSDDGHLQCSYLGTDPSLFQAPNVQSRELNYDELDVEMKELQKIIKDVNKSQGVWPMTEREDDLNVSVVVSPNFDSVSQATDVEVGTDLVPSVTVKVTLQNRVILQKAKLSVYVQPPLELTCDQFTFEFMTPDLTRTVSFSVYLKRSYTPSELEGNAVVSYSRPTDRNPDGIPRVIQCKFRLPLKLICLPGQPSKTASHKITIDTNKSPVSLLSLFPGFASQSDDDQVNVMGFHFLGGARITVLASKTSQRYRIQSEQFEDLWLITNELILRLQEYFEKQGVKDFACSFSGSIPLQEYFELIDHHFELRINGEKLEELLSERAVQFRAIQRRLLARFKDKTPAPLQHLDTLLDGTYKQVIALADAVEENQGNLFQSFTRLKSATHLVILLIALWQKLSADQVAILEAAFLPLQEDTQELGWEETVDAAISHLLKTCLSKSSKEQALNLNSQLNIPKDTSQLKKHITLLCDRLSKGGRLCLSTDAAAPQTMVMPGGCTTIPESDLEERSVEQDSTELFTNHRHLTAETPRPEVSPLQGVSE

The experiment covers variants of B1. The note with it: with pthb1_human BBS9, Q3SYG4.
Consider T454E, for which the “effect of a mutation on the interaction” value is “with no effect”.

For T454K, the “effect of a mutation on the interaction” value is “with no effect”.

With T454A, the “effect of a mutation on the interaction” value is given as “with no effect”.

As for Q469E, the “effect of a mutation on the interaction” value is “with no effect”.

Consider Q469K, for which the “effect of a mutation on the interaction” value is given as “with no effect”.

On to Q469A, for which the “effect of a mutation on the interaction” value is “with no effect”.

Turning to R462A, the “effect of a mutation on the interaction” value is “with no effect”.

With R462K, the “effect of a mutation on the interaction” value was “with no effect”.

Turning to R462E, the “effect of a mutation on the interaction” value was “with no effect”.

As to G494E, the “effect of a mutation on the interaction” value was “with no effect”.

In the case of G494A, the “effect of a mutation on the interaction” value is recorded as “with no effect”.

With G494K, the “effect of a mutation on the interaction” value is “with no effect”.

As to L471F, the “effect of a mutation on the interaction” value is listed as “disrupting interaction strength”.

For the variant L471K, the “effect of a mutation on the interaction” value is listed as “with no effect”.

As for L471E, the “effect of a mutation on the interaction” value is given as “with no effect”.

Turning to L471A, the “effect of a mutation on the interaction” value is listed as “with no effect”.

On to S479E, for which the “effect of a mutation on the interaction” value is given as “with no effect”.

Take S479K: the “effect of a mutation on the interaction” value is “with no effect”.

On to S479A, for which the “effect of a mutation on the interaction” value is “with no effect”.

For A490K, the “effect of a mutation on the interaction” value is reported as “with no effect”.

Regarding A490E, the “effect of a mutation on the interaction” value was “with no effect”.

On to A470E, for which the “effect of a mutation on the interaction” value is given as “with no effect”.

For A470K, the “effect of a mutation on the interaction” value was “with no effect”.

For T481E, the “effect of a mutation on the interaction” value is recorded as “with no effect”.

Take T481K: the “effect of a mutation on the interaction” value is on record as “with no effect”.

As for T481A, the “effect of a mutation on the interaction” value is “with no effect”.

Consider Y467E, for which the “effect of a mutation on the interaction” value is given as “with no effect”.

With Y467K, the “effect of a mutation on the interaction” value is “with no effect”.

As for Y467A, the “effect of a mutation on the interaction” value is given as “with no effect”.

On to A464K, for which the “effect of a mutation on the interaction” value is listed as “with no effect”.

A464E: the “effect of a mutation on the interaction” value is reported as “with no effect”.

Y457K: the “effect of a mutation on the interaction” value is recorded as “with no effect”.

As to Y457E, the “effect of a mutation on the interaction” value was “with no effect”.

In the case of Y457A, the “effect of a mutation on the interaction” value is given as “with no effect”.

On to A482E, for which the “effect of a mutation on the interaction” value is “with no effect”.

As to A482K, the “effect of a mutation on the interaction” value is reported as “with no effect”.

For D455E, the “effect of a mutation on the interaction” value is recorded as “with no effect”.

On to D455K, for which the “effect of a mutation on the interaction” value is given as “with no effect”.

With D455A, the “effect of a mutation on the interaction” value is “with no effect”.

R465E: the “effect of a mutation on the interaction” value was “with no effect”.

Take R465A: the “effect of a mutation on the interaction” value is recorded as “with no effect”.

Consider R465K, for which the “effect of a mutation on the interaction” value is recorded as “with no effect”.

Turning to T510A, the “effect of a mutation on the interaction” value was “with no effect”.

For the variant T510E, the “effect of a mutation on the interaction” value is “with no effect”.

With T510K, the “effect of a mutation on the interaction” value is “with no effect”.

With E472K, the “effect of a mutation on the interaction” value is on record as “with no effect”.

As for E472A, the “effect of a mutation on the interaction” value is “with no effect”.

In the case of E484K, the “effect of a mutation on the interaction” value is reported as “with no effect”.

Take E484A: the “effect of a mutation on the interaction” value is recorded as “with no effect”.

Regarding A463E, the “effect of a mutation on the interaction” value is on record as “disrupting interaction strength”.

Consider A463K, for which the “effect of a mutation on the interaction” value is “disrupting interaction strength”.

Turning to S473A, the “effect of a mutation on the interaction” value is listed as “with no effect”.

For S473E, the “effect of a mutation on the interaction” value is recorded as “with no effect”.

For the variant S473K, the “effect of a mutation on the interaction” value is listed as “with no effect”.

In the case of T502A, the “effect of a mutation on the interaction” value is “with no effect”.

Regarding T502K, the “effect of a mutation on the interaction” value is “with no effect”.

As to T502E, the “effect of a mutation on the interaction” value is “with no effect”.

K487A: the “effect of a mutation on the interaction” value is on record as “with no effect”.

As to K487E, the “effect of a mutation on the interaction” value is “with no effect”.

In the case of R450E, the “effect of a mutation on the interaction” value is “with no effect”.

Turning to R450A, the “effect of a mutation on the interaction” value is on record as “with no effect”.

As to R450K, the “effect of a mutation on the interaction” value was “with no effect”.

Turning to P477K, the “effect of a mutation on the interaction” value was “with no effect”.

Turning to P477E, the “effect of a mutation on the interaction” value is listed as “with no effect”.

Take P477A: the “effect of a mutation on the interaction” value is given as “with no effect”.

As for L456K, the “effect of a mutation on the interaction” value is on record as “with no effect”.

On to L456A, for which the “effect of a mutation on the interaction” value was “with no effect”.

L456E: the “effect of a mutation on the interaction” value was “with no effect”.

Turning to L468E, the “effect of a mutation on the interaction” value is reported as “with no effect”.

Turning to L468K, the “effect of a mutation on the interaction” value is given as “with no effect”.

For the variant L468A, the “effect of a mutation on the interaction” value is listed as “with no effect”.

As for T511A, the “effect of a mutation on the interaction” value is recorded as “with no effect”.

Turning to R460E, the “effect of a mutation on the interaction” value is listed as “with no effect”.

Consider R460A, for which the “effect of a mutation on the interaction” value is reported as “with no effect”.

With R460K, the “effect of a mutation on the interaction” value is “with no effect”.

Take Q493E: the “effect of a mutation on the interaction” value is listed as “with no effect”.

With Q493K, the “effect of a mutation on the interaction” value is “with no effect”.

Consider Q493A, for which the “effect of a mutation on the interaction” value is listed as “with no effect”.

As for L461A, the “effect of a mutation on the interaction” value was “with no effect”.

Consider L461E, for which the “effect of a mutation on the interaction” value is recorded as “with no effect”.

In the case of L461K, the “effect of a mutation on the interaction” value was “with no effect”.

On to L458K, for which the “effect of a mutation on the interaction” value is “with no effect”.

L458A: the “effect of a mutation on the interaction” value is listed as “with no effect”.

With L458E, the “effect of a mutation on the interaction” value was “with no effect”.

Consider Q506E, for which the “effect of a mutation on the interaction” value is listed as “with no effect”.

Q506A: the “effect of a mutation on the interaction” value is “with no effect”.

Turning to Q506K, the “effect of a mutation on the interaction” value was “with no effect”.

As to H489E, the “effect of a mutation on the interaction” value was “with no effect”.

With H489A, the “effect of a mutation on the interaction” value is “with no effect”.

H489K: the “effect of a mutation on the interaction” value was “with no effect”.

For the origin of these results see IntAct's records for PubMed 29039417.
